Data reported in US20180022779.

B1: human CytB5R3 (endogenous, vascular cell co-culture and human coronary ECs) (protein)
chain: GAQLSTLGHMVLFPVWFLYSLLMKLFQRSTPAITLESPDIKYPLRLIDREIISHDTRRFRFALPSPQHILGLPVGQHIYLSARIDGNLVVRPYTPISSDDDKGFVDLVIKVYFKDTHPKFPAGGKMSQYLESMQIGDTIEFRGPSGLLVYQGKGKFAIRPDKKSNPIIRTVKSVGMIAGGTGITPMLQVIRAIMKDPDDHTVCHLLFANQTEKDILLRPELEELRNKHSARFKLWYTLDRAPEAWDYGQGFVNEEMIRDHLPPPEEEPLVLMCGPPPMIQYACLPNLDHVGHPTERCFVF
B2: FLAG-tagged CytB5R3 (Origene) (protein)
chain: B1 chain

Biological target: purified Hb α chains (isolated from lyophilized hemoglobin, Sigma), P69905
Sequence (P69905 2-142): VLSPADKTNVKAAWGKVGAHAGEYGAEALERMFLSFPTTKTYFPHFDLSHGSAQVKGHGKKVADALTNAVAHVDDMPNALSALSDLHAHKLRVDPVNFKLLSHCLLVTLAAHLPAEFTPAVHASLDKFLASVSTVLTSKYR

| Protein | met-Hb α reduction, time lapse UV-visible spectrometry of EC lysates mixed with purified Hb α chains and NADH | met-Hb α reduction, time lapse UV-visible spectrometry of lysates of ECs transfected with CytB5R3-Flag, mixed with purified Hb α chains and NADH |
| --- | --- | --- |
| B1 | loss of CytB5R3 inhibited metHb α reduction |  |
| B2 |  | overexpression enhanced metHb α reduction |
